Source: PMC12871924, “Human FASTK preferentially binds single‐stranded and G‐rich RNA”
Substitutions are numbered along the chain they refer to.

Experiments:
FASTK∆N1-75 [1] = molecular target: T1, FASTK∆N1-75 (Homo sapiens, UniProt Q14296 76-549, del1-75); experiment: MST; K+ annealed; MST: 1x PBS, 5% glycerol, 1 mM DTT, Tween-20 (0.05% in RNA stock), 20 nM RNA, 22 °C; RNA annealed in 50 mM Tris/HCl pH 7.5, 50 mM KCl (or LiCl), 50 mM NaCl; EMSA: same solutions, on ice; footprinting: 1x Structure Buffer, 37 °C; details: protein: recombinant, tags: His6-SUMO cleaved, label: Cy5
T1 sequence: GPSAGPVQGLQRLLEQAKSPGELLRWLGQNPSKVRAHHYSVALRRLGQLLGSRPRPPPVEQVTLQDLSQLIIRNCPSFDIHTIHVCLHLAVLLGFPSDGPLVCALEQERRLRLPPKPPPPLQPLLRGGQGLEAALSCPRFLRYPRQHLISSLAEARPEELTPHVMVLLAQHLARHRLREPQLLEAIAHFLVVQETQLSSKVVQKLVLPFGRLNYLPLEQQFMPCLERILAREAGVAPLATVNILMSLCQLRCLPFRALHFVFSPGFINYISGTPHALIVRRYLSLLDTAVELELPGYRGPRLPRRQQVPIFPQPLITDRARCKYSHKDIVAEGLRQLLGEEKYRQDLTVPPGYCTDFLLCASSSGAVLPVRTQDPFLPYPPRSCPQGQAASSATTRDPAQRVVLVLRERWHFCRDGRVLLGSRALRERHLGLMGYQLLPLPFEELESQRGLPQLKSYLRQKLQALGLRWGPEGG

FASTK∆N1-75 [2] = molecular target: T1, FASTK∆N1-75; experiment: MST; MST: 1x PBS, 5% glycerol, 1 mM DTT, Tween-20 (0.05% in RNA stock), 20 nM RNA, 22 °C; RNA annealed in 50 mM Tris/HCl pH 7.5, 50 mM KCl (or LiCl), 50 mM NaCl; EMSA: same solutions, on ice; footprinting: 1x Structure Buffer, 37 °C; details: protein: recombinant, tags: His6-SUMO cleaved
FASTK∆N1-75 [3] = molecular target: T1, FASTK∆N1-75; experiment: MST; same as unmutated oligo 5; MST: 1x PBS, 5% glycerol, 1 mM DTT, Tween-20 (0.05% in RNA stock), 20 nM RNA, 22 °C; RNA annealed in 50 mM Tris/HCl pH 7.5, 50 mM KCl (or LiCl), 50 mM NaCl; EMSA: same solutions, on ice; footprinting: 1x Structure Buffer, 37 °C; details: protein: recombinant; tags: His6-SUMO cleaved; label: Cy5 body (CTP or UTP)
[4] = molecular target: T2, FASTK∆N1-75 R249/R251 mutant (Homo sapiens, UniProt Q14296 76-549, R249A;R251A;del1-75); experiment: MST; MST: 1x PBS, 5% glycerol, 1 mM DTT, Tween-20 (0.05% in RNA stock), 20 nM RNA, 22 °C; RNA annealed in 50 mM Tris/HCl pH 7.5, 50 mM KCl (or LiCl), 50 mM NaCl; EMSA: same solutions, on ice; footprinting: 1x Structure Buffer, 37 °C; details: protein: recombinant; tags: His6-SUMO cleaved; label: Cy5 body (CTP or UTP); 5' 32P in footprinting; predicted G4
T2 sequence: T1 sequence with R174A, R176A

FASTK∆N1-75 [5] = molecular target: T1, FASTK∆N1-75; experiment: MST; same as unmutated oligo 10; MST: 1x PBS, 5% glycerol, 1 mM DTT, Tween-20 (0.05% in RNA stock), 20 nM RNA, 22 °C; RNA annealed in 50 mM Tris/HCl pH 7.5, 50 mM KCl (or LiCl), 50 mM NaCl; EMSA: same solutions, on ice; footprinting: 1x Structure Buffer, 37 °C; details: protein: recombinant; tags: His6-SUMO cleaved; label: Cy5 body (CTP or UTP)
FASTK∆N1-75 [6] = molecular target: T1, FASTK∆N1-75; experiment: MST; 100 mM K+, no Na+; better than AU-rich mutant; MST: 1x PBS, 5% glycerol, 1 mM DTT, Tween-20 (0.05% in RNA stock), 20 nM RNA, 22 °C; RNA annealed in 50 mM Tris/HCl pH 7.5, 50 mM KCl (or LiCl), 50 mM NaCl; EMSA: same solutions, on ice; footprinting: 1x Structure Buffer, 37 °C; details: protein: recombinant; tags: His6-SUMO cleaved; label: Cy5

Work on UUAGGGUUAGGGUUAGGGUUAGGG (structured_RNA) [TERRA] yielded a Kd (FASTK∆N1-75 [1]; G4 intramolecular in K+) of 2.4 nM.

In the case of UUUUCUGUUUUUUC (ssRNA) [U-rich short RNA], the Kd (FASTK∆N1-75 [2]; label: Cy5) is reported as 63.2 nM.

AAAUCUGUAAAAUC (ssRNA) [A-rich short RNA] gave a Kd (FASTK∆N1-75 [2]; label: Cy5) of 78.4 nM.

Work on GGGUCUGUGGGGUC (ssRNA) [G-rich short RNA (internal loop strand 2)] yielded a Kd (FASTK∆N1-75 [2]; label: Cy5) of 2.7 nM.

B1: ND6 oligo 5 G4kill mutant (ssRNA)
RNA: GAGUGGUCAGAGUUGAUUCGUGAGGAUCCUAUUGGUGCGGAGGCUUUGUAUGAUUAUGUGCGUUGAUUAGUAGUAGUUACUGGUUGAACAUUGUUUGUUGGUGUAUAUAUUGUAAUUGAGAUUGC
B1: binds (FASTK∆N1-75 [3]).

B2: ND6 oligo 5 (structured_RNA)
RNA: B1 RNA with U4G, A11G, U21G, A41G, U59G
With B2 the binding signal [4] was 5 fold decrease vs wild type and the Kd (FASTK∆N1-75 [2]; label: Cy5 body (CTP or UTP), 5' 32P in footprinting, predicted G4) was 25.5 nM.

B3: ND6 oligo 10 G4kill mutant (ssRNA)
RNA: GGAGGAUUGUUGUUUGGAAGGUGGAUGCGGAGGAAAUGUUGUUAGUAAUGAGAAAUCCUGCGAAUAGGCUUCCGG
B3: binds (FASTK∆N1-75 [5]).

B4: ND6 oligo 10 (structured_RNA)
RNA: B3 RNA with A3G, U22G, A31G
Binder B4 has a Kd (FASTK∆N1-75 [2]; label: Cy5 body (CTP or UTP), predicted G4) of 18.5 nM.

UUAGAGUUAGUGUUAGAGUUAGUG (ssRNA) [TERRA AU-rich mutant] gave a Kd (FASTK∆N1-75 [1]) of 6.4 nM.

Work on CCCUCUGUCCCCUC (ssRNA) [C-rich short RNA] yielded a Kd (FASTK∆N1-75 [2]; label: Cy5) of 212 nM.

UUACCCUUACCCUUACCCUUACCC (ssRNA) [TERRA C-rich mutant]: binds (FASTK∆N1-75 [6]).
